Data as given in US20230250176A1 (DRAGONFLY THERAPEUTICS, published 2023).

Legend:
human NKG2D on cells = target: T1, human NKG2D on cells (human, UniProt P26718 1-216); assay: flow cytometry with AF647-conjugated test article on KHYG-1 parental cells (NKG2D, no CD16a); KHYG-1 parental cell line (NKG2D+, CD16a-), titrated from 800 nM
T1 construct: whole, on cells; also called NKG2D on KHYG-1 parental cells; NKG2D on CD8+ T cells and NK cells
T1 sequence (looked up): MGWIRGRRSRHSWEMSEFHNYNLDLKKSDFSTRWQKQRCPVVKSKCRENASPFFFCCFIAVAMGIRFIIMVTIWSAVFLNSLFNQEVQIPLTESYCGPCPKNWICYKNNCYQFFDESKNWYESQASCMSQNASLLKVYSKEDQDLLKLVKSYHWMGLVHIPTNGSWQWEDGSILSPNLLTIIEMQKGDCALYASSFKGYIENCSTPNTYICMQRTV

[1] = target: T2, purified recombinant human EGFR (human, UniProt P00533 25-645); assay: SPR (Biacore 8K), 37 C
T2 construct: the whole entry is named; also called recombinant human epidermal growth factor receptor
Method: (§1) Measurements were performed at physiological temperature of 37° C. using a Biacore8K SPR system.

[2] = target: purified recombinant rat EGFR (rat, UniProt A0ABK0LZB0 35-651); assay: SPR (Biacore 8K), 37 C
Method: as §1

[3] = target: purified recombinant mouse EGFR (mouse, UniProt Q01279 25-647, limits assumed); assay: SPR (Biacore 8K), 37 C
Method: as §1

[4] = target: purified recombinant cynomolgus monkey EGFR (cynomolgus monkey, UniProt A0A2K5WK39 25-645); assay: SPR (Biacore 8K), 37 C
Method: as §1

EC50 (human NKG2D on cells): > 600 nM | Kd [1]: 4.7 nM | koff [1]: 0.00095 s⁻¹ | kon [1]: 200000 M⁻¹ s⁻¹ | binding result [2]: no binding | binding result [3]: no binding | Kd [4]: 5.9 nM | koff [4]: 0.001 s⁻¹ | kon [4]: 180000 M⁻¹ s⁻¹
B1: EGFR-TriNKET (bispecific antibody, human IgG1, kappa)
chain: DIQMTQSPSSLSASVGDRVTITCQASQDISNYLNWYQQKPGKAPKLLIYDASNLETGVPSRFSGSGSGTDFTFTISSLQPEDIATYYCQHFRHLPLAFGCGTKVEIKGGGGSGGGGSGGGGSGGGGSQVQLQESGPGLVKPSETLSLTCTVSGGSVSSGDYYWTWIRQSPGKCLEWIGHIYYSGNTNYNPRLKSRLTISIDTSKTQFSLKLSSVTAADTAIYYCVRDRVTGAFDIWGQGTMVTVSSGSDKTHTCPPCPAPELLGGPSVFLFPPKPKDTLMISRTPEVTCVVVDVSHEDPEVKFNWYVDGVEVHNAKTKPREEQYNSTYRVVSVLTVLHQDWLNGKEYKCKVSNKALPAPIEKTISKAKGQPREPRVYTLPPCRDELTKNQVSLTCLVKGFYPSDIAVEWESNGQPENNYKTTPPVLVSDGSFTLYSKLTVDKSRWQQGNVFSCSVMHEALHNHYTQKSLSLSPG
heavy: EVQLVESGGGLVKPGGSLRLSCAASGFTFSSYSMNWVRQAPGKGLEWVSSISSSSSYIYYADSVKGRFTISRDNAKNSLYLQMNSLRAEDTAVYYCARGAPIGAAAGWFDPWGQGTLVTVSSASTKGPSVFPLAPSSKSTSGGTAALGCLVKDYFPEPVTVSWNSGALTSGVHTFPAVLQSSGLYSLSSVVTVPSSSLGTQTYICNVNHKPSNTKVDKKVEPKSCDKTHTCPPCPAPELLGGPSVFLFPPKPKDTLMISRTPEVTCVVVDVSHEDPEVKFNWYVDGVEVHNAKTKPREEQYNSTYRVVSVLTVLHQDWLNGKEYKCKVSNKALPAPIEKTISKAKGQPREPQVCTLPPSRDELTENQVSLTCLVKGFYPSDIAVEWESNGQPENNYKTTPPVLDSDGSFFLYSWLTVDKSRWQQGNVFSCSVMHEALHNHYTQKSLSLSPG
light: DIQMTQSPSSVSASVGDRVTITCRASQGISSWLAWYQQKPGKAPKLLIYAASSLQSGVPSRFSGSGSGTDFTLTISSLQPEDFATYYCQQGVSFPRTFGGGTKVEIKRTVAAPSVFIFPPSDEQLKSGTASVVCLLNNFYPREAKVQWKVDNALQSGNSQESVTEQDSKDSTYSLSSTLTLSKADYEKHKVYACEVTHQGLSSPVTKSFNRGEC
notes: also called EGFR-TriNKET-3
